Measured values taken from the supplement of paper PMC12764529.
± gives the half width of the 95% confidence interval.

How the values were obtained:
[1] = folding stability dG unfold (combined trypsin and chymotrypsin); higher = more stable
Procedure, shortened: (§1)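 Sequencing followed digestion of designed mini-proteins with trypsin and chymotrypsin, each at 11 concentrations in threefold dilutions together with a no-protease condition. The mini-proteins were under 80 residues, had no cysteine, sat in a PA-tagged cDNA display construct, and were kept only if AlphaFold2 dimer inter-PAE was above 15. From the counts, Bayesian fitting gave K50, and unfolding free energy was derived against a sequence-predicted unfolded-state K50 and a shared folded-state K50, per protease or combined.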

[2] = folding stability dG unfold from chymotrypsin proteolysis; higher = more stable
Procedure, shortened: as §1

## SAGGSAGGSPGVRVKPVGDHYVVEIPLPPSVPLGRAVFEVEGGYAETVAVDPERGIATVRVPLSAGGSAGGS [r12_675_TrMRF]
[1]
  folding stability dG unfold: -0.352 ± 0.15 kcal/mol
[2]
  folding stability dG unfold: 0.091 ± 0.11 kcal/mol

## SAGGSAGGSPKPKRRTIEFPLKVPPGMSPEDVADELKQQPGFEIDEIDEVDPDEGWVKISVELSAGGSAGGS [r12_712_TrROS]
[1]
  folding stability dG unfold: < -1 kcal/mol
[2]
  folding stability dG unfold: -0.377 ± 0.13 kcal/mol

## SAGGSAGGSPMPILSASADPGPDGTRTLTLRLGDKTVTFTVPASRPALIPAPADSVISLDPAGSAGGSAGGS [r12_373_TrMRF]
[1]
  folding stability dG unfold: -0.64 ± 0.16 kcal/mol
[2]
  folding stability dG unfold: -0.467 ± 0.14 kcal/mol

## SAGGSAGGSPPENMKIKIYNPNGEEQTIPVEGVKIRFNGDTHEIPPGDSIPIPPGIDAIEIEKSAGGSAGGS [r12_779_TrROS]
[1]
  folding stability dG unfold: 0.0926 ± 0.22 kcal/mol
[2]
  folding stability dG unfold: 0.512 ± 0.084 kcal/mol

## SAGGSAGGSPPESRPFTTDPGPSGEYTAKLLPPDGSSEEVVLPVSQPRTLNVPKDWSFEVLPPSAGGSAGGS [r12_517_JUSTAS]
[1]
  folding stability dG unfold: -0.338 ± 0.12 kcal/mol
[2]
  folding stability dG unfold: 0.157 ± 0.11 kcal/mol

## SAGGSAGGSPPPVPLSTLAVEPDPATGGKFTVLLAYPDGSTRELTSEEEAAALPNFDLERRLASAGGSAGGS [r20_192_JUSTAS]
[1]
  folding stability dG unfold: -0.0474 ± 0.21 kcal/mol
[2]
  folding stability dG unfold: 0.443 ± 0.2 kcal/mol

## SAGGSAGGSQKPTIEKEGGRYYIRNPDNGKSFPINIEREDNEWKFEFGDGEITIPGEFEIQRRSAGGSAGGS [r12_683_TrROS]
[1]
  folding stability dG unfold: < -1 kcal/mol
[2]
  folding stability dG unfold: -0.308 ± 0.14 kcal/mol

## SAGGSAGGSSEVIEKLLELNPDVEVVSVTPTPNGVTVTVATKEGGEETVSSAELEKLGVKIRLSAGGSAGGS [r12_3_JUSTAS]
[1]
  folding stability dG unfold: 0.1 ± 0.28 kcal/mol
[2]
  folding stability dG unfold: 0.282 ± 0.1 kcal/mol

## SAGGSAGGSTADALKDLPPGAKIEVEPHPIPNEDGWVYRQHYIKIEDPNKTVELPVIIPIPLPSAGGSAGGS [r12_892_TrROS]
[1]
  folding stability dG unfold: -0.0244 ± 0.37 kcal/mol
[2]
  folding stability dG unfold: -0.0369 ± 0.39 kcal/mol

## SAGGSAGGTREIELPGMKISVQKDPNQGKKKIEVEFPNGEEFTMDPGKPPDDLPPPFRRALKEISAGGSAGG [r6_749_TrROS]
[1]
  folding stability dG unfold: < -1 kcal/mol
[2]
  folding stability dG unfold: -0.176 ± 0.31 kcal/mol

## SAGGSAGGWIKLDGKEVYIVIPDGNPEQIAKELKEQFPNGNIKPHPGQNAEEAAKKNKRVIWIPSAGGSAGG [r6_680_TrROS]
[1]
  folding stability dG unfold: 0.284 ± 0.37 kcal/mol
[2]
  folding stability dG unfold: 0.771 ± 0.16 kcal/mol

## SAGGSAGMPRLVEIEVPLPPDAKDPEIKEKIIKTPEGYEYKTIKETSDPSPSSLRKIIMEKKPLKKSAGGSA [r15_852_JUSTAS]
[1]
  folding stability dG unfold: < -1 kcal/mol
[2]
  folding stability dG unfold: -0.197 ± 0.99 kcal/mol

## SAGGSAGMRMQIQIPNDEIPPEKIEDALQEYGWNPTDVYPPDNGVSVTFEMDPGDMNKLMEAIKKLSAGGSA [r15_161_TrROS]
[1]
  folding stability dG unfold: 0.107 ± 0.35 kcal/mol
[2]
  folding stability dG unfold: 0.843 ± 0.29 kcal/mol

## SAGGSAGMVVEPREVVIKLKPPNGPETTLEVELVEVEPDSLVLRNGDTPIVLPPDAEDVEILEVTGSAGGSA [r15_510_JUSTAS]
[1]
  folding stability dG unfold: 0.0501 ± 0.22 kcal/mol
[2]
  folding stability dG unfold: 0.401 ± 0.088 kcal/mol

## SAGGSAGPMPSTVTTLATAPLPDGTLVVTTLERTPDSVTRTTTTYKPADGSPLGTASTTYPAPAALSAGGSA [r15_716_JUSTAS]
[1]
  folding stability dG unfold: -0.0279 ± 0.14 kcal/mol
[2]
  folding stability dG unfold: 0.808 ± 0.15 kcal/mol

## SAGGSAGSVPSIVIESYDPEKGIVTVSYPATGATYTVEVPPGSTSLTVTVTDADGTPRTFTFPLPGSAGGSA [r2_132_JUSTAS]
[1]
  folding stability dG unfold: 5.36 ± 0.12 kcal/mol
[2]
  folding stability dG unfold: 5.31 ± 0.1 kcal/mol

## SAGGSAHPVQFPNGQEFPIRNPKNGKDFKIRMEQEDGPMRAEIEYPGGGKKRRIDGPMSLEEALKQSAGGSA [r15_234_TrROS]
[1]
  folding stability dG unfold: -0.0891 ± 0.24 kcal/mol
[2]
  folding stability dG unfold: 0.509 ± 0.12 kcal/mol

## SAGGSAITLEDIRNMPIEEIAKEMQDHFPNGQKQPIEFEYPDGRKLRIKAEYPPNGEPKIDIEPVDSAGGSA [r15_857_TrROS]
[1]
  folding stability dG unfold: < -1 kcal/mol
[2]
  folding stability dG unfold: 0.139 ± 0.14 kcal/mol

## SAGGSAKLRVAEADFVPGALLEAIEELEKAPAGAEVEVRPGDPLEPKERPVRFVVNEKGELLEVVGSAGGSA [r15_228_TrMRF]
[1]
  folding stability dG unfold: < -1 kcal/mol
[2]
  folding stability dG unfold: -0.619 ± 0.32 kcal/mol

## SAGGSAKPGEKLKIRMWNPDGETHEFDVKIPPGVRIRMPDNGQEQTFPPGDEIPFPPNMPIQVEKVSAGGSA [r15_152_TrROS]
[1]
  folding stability dG unfold: -0.121 ± 0.29 kcal/mol
[2]
  folding stability dG unfold: 0.309 ± 0.086 kcal/mol

## SAGGSAKRVAFIGGGPEIEKVIKEAEKNGFEAVPFDGTPDEFLDALKKNFPDVKQIVFPDGKVLDASAGGSA [r15_712_TrMRF]
[1]
  folding stability dG unfold: -0.134 ± 0.13 kcal/mol
[2]
  folding stability dG unfold: 0.192 ± 0.13 kcal/mol

## SAGGSALTPAVAERLRELFPDGDLGLKAVKPGEVVVFPNGARNFNTEDAERVVVVLPDGEPLVLDVSAGGSA [r2_166_TrMRF]
[1]
  folding stability dG unfold: -0.241 ± 0.23 kcal/mol
[2]
  folding stability dG unfold: 0.117 ± 0.14 kcal/mol

## SAGGSAMKAKVVDTSLKESKTKDDSIIVTVTVKYPDGSVTPIVYPVSSSGGISEEEVEKAIKELLESAGGSA [r15_233_JUSTAS]
[1]
  folding stability dG unfold: -0.661 ± 0.14 kcal/mol
[2]
  folding stability dG unfold: -0.138 ± 0.057 kcal/mol

## SAGGSAMKTAEVVLDVPEEELEAARAAGEGLSAEVRARMEALAAEVRAAGYDEVVLRLRPSSVPLPSAGGSA [r15_304_JUSTAS]
[1]
  folding stability dG unfold: < -1 kcal/mol
[2]
  folding stability dG unfold: -0.0294 ± 0.24 kcal/mol

## SAGGSAMPRSSVSIVSVERAPDGTVTIPTKTTLTTPDGTVTTEESTVTLEVPPGRELSEEEIKKLLSAGGSA [r15_836_JUSTAS]
[1]
  folding stability dG unfold: 0.53 ± 0.11 kcal/mol
[2]
  folding stability dG unfold: 0.983 ± 0.017 kcal/mol

## SAGGSAMTEEEFETEFSDPNNSLSTKVKTTRYLEGDTPVVKTTYTTEDPNTGSTYTTEKVTVIPKKSAGGSA [r15_960_JUSTAS]
[1]
  folding stability dG unfold: -0.891 ± 0.29 kcal/mol
[2]
  folding stability dG unfold: -0.218 ± 0.18 kcal/mol

## SAGGSAMVVPVASEEEARAVAEEAAARGEPVVIAFPGGRALVVETAAAPTPEPVLRVEEREVPPLLSAGGSA [r15_761_JUSTAS]
[1]
  folding stability dG unfold: 0.216 ± 0.034 kcal/mol
[2]
  folding stability dG unfold: 0.744 ± 0.0083 kcal/mol

## SAGGSASTREVGDKTLTVTPIKLPNGTNLVLLRTFDPATGKVPVLAFPPEEGNPLGESVLPASELLSAGGSA [r15_671_JUSTAS]
[1]
  folding stability dG unfold: < -1 kcal/mol
[2]
  folding stability dG unfold: -0.654 ± 0.14 kcal/mol

## SAGGSASVSVTELSPEERAALEAAGVEVPDDRPRVVETRTVTPAGGAVVTVRVLPEPPLSPEELAASAGGSA [r15_322_JUSTAS]
[1]
  folding stability dG unfold: -0.127 ± 0.066 kcal/mol
[2]
  folding stability dG unfold: 0.311 ± 0.013 kcal/mol

## SAGGSASVSYDPTPGPTRRTTTLLETEEVGPNLKRVKTKVTLFPSDGVPTTSTVTELDLVPPPELPSAGGSA [r15_1035_JUSTAS]
[1]
  folding stability dG unfold: 0.128 ± 0.11 kcal/mol
[2]
  folding stability dG unfold: 0.527 ± 0.057 kcal/mol

## SAGGSETLELTIEIPGLGQPVSARSTSFDPEKGLWTAEMKSPVPGLRRTLTYDPVTGTVSSTTTLLSAGGSA [r2_147_JUSTAS]
[1]
  folding stability dG unfold: 0.108 ± 0.13 kcal/mol
[2]
  folding stability dG unfold: 0.341 ± 0.13 kcal/mol

## SAGGSGDSMLVPVSESTSSYPPSGIVRSTKTILDPKKGGIITETTTTTLTPDGNPLSTTPSTTVKESAGGSA [r2_253_JUSTAS]
[1]
  folding stability dG unfold: -0.244 ± 0.23 kcal/mol
[2]
  folding stability dG unfold: 0.344 ± 0.032 kcal/mol

## SAGGSGMWTPKQVKLLAEPGKSKTITIPGPVSEEEINALLNAGEPVIITLPDGTVLKAEKNTITLESAGGSA [r2_33_JUSTAS]
[1]
  folding stability dG unfold: -0.371 ± 0.15 kcal/mol
[2]
  folding stability dG unfold: 0.138 ± 0.084 kcal/mol

## SAGGSGSRIVVETITEYEVFETPTGKKKTKVFKTKKIVTETVPMSPADVAAYEAALAEGLGPGALASAGGSA [r2_327_JUSTAS]
[1]
  folding stability dG unfold: -0.234 ± 0.17 kcal/mol
[2]
  folding stability dG unfold: 0.714 ± 0.16 kcal/mol

## SAGGSIPAEEIADKLRKEPGIPEDDVEVNVERRPGQVTIDVKMDDPDHPQHRRMKKRAQDALQKLLSAGGSA [r2_3_TrROS]
[1]
  folding stability dG unfold: -0.133 ± 0.3 kcal/mol
[2]
  folding stability dG unfold: 0.186 ± 0.31 kcal/mol

## SAGGSMKDIPAEEIAKLFAAKLGYPILDAKVEKNPVKPVYKLYIVVEEKNPGKKFPREITIPSELLSAGGSA [r2_156_TrMRF]
[1]
  folding stability dG unfold: -0.0499 ± 0.22 kcal/mol
[2]
  folding stability dG unfold: 0.196 ± 0.25 kcal/mol

## SAGGSMLVTVKFKTLPDGTVDHNPKLLAKVDGPEPDPADPATVRLPVDPAVVAQWPEEVAEEMEILASAGGS [r16_328_JUSTAS]
[1]
  folding stability dG unfold: -0.159 ± 0.074 kcal/mol
[2]
  folding stability dG unfold: 0.155 ± 0.086 kcal/mol

## SAGGSMPPVVEPATLTLGNGPATQLQRYPGVELVVYRRPPENTILFLSSSGQVLEERKVSPETPVSELSAGG [r13_507_JUSTAS]
[1]
  folding stability dG unfold: < -1 kcal/mol
[2]
  folding stability dG unfold: -0.318 ± 0.31 kcal/mol

## SAGGSMSTTLPDGGKVTVYSDPNKPLTLVEVELPDRRLVVLRPVSAPEDGTIVAPVEVRPLEEVEEASAGGS [r16_85_JUSTAS]
[1]
  folding stability dG unfold: < -1 kcal/mol
[2]
  folding stability dG unfold: -0.0108 ± 0.18 kcal/mol

## SAGGSMTVSTAPDGTLKVYDPATGKLNPLPVPPVPLVVSRSVQPDKGVVITTTTTPSGEVTVSTTALSAGGS [r16_453_JUSTAS]
[1]
  folding stability dG unfold: -0.159 ± 0.075 kcal/mol
[2]
  folding stability dG unfold: 0.394 ± 0.06 kcal/mol

## SAGGSMTVVTVEARPPDSSETTVTPLTETAPDGRPRAISLEEARARLAAEPDRPVTRVTVRPEAAASAGGSA [r2_192_JUSTAS]
[1]
  folding stability dG unfold: 0.0975 ± 0.15 kcal/mol
[2]
  folding stability dG unfold: 0.452 ± 0.057 kcal/mol

## SAGGSPAPVRRTVTQLLKVGDKLETRVVEEVVWVPEPPPPPVIPIPEDRGLNEEPVPGTRELTFDAGSAGGS [r8_28_JUSTAS]
[1]
  folding stability dG unfold: -0.195 ± 0.37 kcal/mol
[2]
  folding stability dG unfold: 0.268 ± 0.19 kcal/mol

## SAGGSPWIEVEIPFPPGMPADELADFIAEELDENGHDVKVDDVEQDPEEGYMKFRVRDGKSVEIPWSAGGSA [r2_242_TrROS]
[1]
  folding stability dG unfold: -0.521 ± 0.23 kcal/mol
[2]
  folding stability dG unfold: -0.522 ± 0.28 kcal/mol

## SAGGSSNVGEVTIEIREPVNPERFVDPEYREKAIEEMKEKAEAKAEEIKKENPNVKVTVNISLLEPGSAGGS [r8_183_JUSTAS]
[1]
  folding stability dG unfold: -0.00749 ± 0.36 kcal/mol
[2]
  folding stability dG unfold: 0.659 ± 0.07 kcal/mol
